Like-named read-outs stand apart in the source and are kept apart here.
How the values were obtained:
[1] = Thermal stability of lysozyme in TCH by differential scanning calorimetry; type: physicochemical
Method: TCH solutions were prepared, water was added, and the water content was measured using Karl Fischer titration until the desired solutions were achieved. Lysozyme was weighed into the container and the appropriate amount of TCH was added to achieve a solution with a concentration of approximately 1 mg/mL. Samples were gently inverted several times and left at room temperature for one hour or overnight to allow the lysozyme to rehydrate and go into solution. Some samples were dried by evaporative drying and rehydrated prior to scanning Another sample of lysozyme in 0.1M sodium acetate buffer pH 4 was prepared for comparison.
To determine the stability of lysozyme in TCH over time, a set of samples was prepared at stable moisture contents and stored at the appropriate humidity at room temperature for a period of five weeks. These samples were prepared with a protein concentration of 10 mg/mL prior to storage. After five weeks, they were diluted to approximately 1 mg/mL and scanned using differential scanning calorimetry (DSC).
A Micro-cal VP DSC was used for determining the thermal stability of the protein. A baseline was established by scanning the TCH solution without protein at least three times until repeatability was evident. The TCH solutions used for the baseline scans are identical to the sample solutions, without protein. The baseline scans of the solutions without protein help eliminate noise resultant from variation in the sample cells. […] The concentration of lysozyme in each sample was verified prior to scanning by reading the absorbance at 280 nm on the Biotek Synergy plate reader. […]
The DSC thermal traces were fit in OriginPro with a non-two-state model that includes an output of both calorimetric enthalpy and Van't Hoff enthalpy, Hv. The calorimetric enthalpy is determined by the area under the curve and depends on the selected baseline as well as the normalized concentration. […] The number of intermediate steps in the unfolding process can be determined by taking the ratio of calorimetric enthalpy to Van't Hoff enthalpy. […]

[2] = Solubility of lysozyme by turbidimetric assay (absorbance at 600 nm); type: physicochemical
Method: Initial solubility studies were performed on the model protein lysozyme in water. Samples having known concentrations were prepared by weighing the lysozyme and adding the appropriate amount of water to get the desired concentration in mg/mL. The samples were gently inverted several times and stored at room temperature for 1 hour to overnight to allow the protein to rehydrate. Solubility limits were determined via turbidimetric assay.
The samples were then placed in a Biotek Synergy plate reader and absorbance was measured from 200 nm to 900 nm. As FIG. 1 illustrates, lysozyme has a characteristic […] at 280 nm that can be used along with Beer-Lambert's law to measure the concentration, however, for samples above 5 mg/mL, the instrument sensor becomes saturated and the readings are not useful for determining concentration. Therefore, to determine solubility limits, the absorbance at 600 nm was used to indicate the presence of aggregate or particulate in suspension. At this wavelength, far from the characteristic absorbance, any increase in absorbance is an indicator that the protein is not completely in solution. A baseline was established by measuring the absorbance of pure water or TCH solution without any lysozyme. Samples were measured in triplicate and the averages are plotted in the accompanying figures.
To determine the effect of TCH on the solubility of lysozyme, values for the solubility of lysozyme in TCH formulations as a function of water content were obtained. […] There is a characteristic peak proximate 280 nm that can be used can be used along with Beer-Lambert's law to determine concentrations, however, the spectra is near zero away from this peak.

[3] = in NaH2PO4; cited from earlier work
[4] = cited from earlier work

Compound | degradation after storage ([1]; five weeks of storage in stable TCH solutions, moisture content and/or humidity controlled, room temperature) | thermal unfolding temperature, stored versus fresh samples ([1]; stored five weeks in TCH, DSC) | thermal unfolding temperature ([1]; versus weight percent of TCH in solution, DSC) | solubility ([2]; in TCH 1:4 compositions, all water content levels tested (0.01 to 0.70 grams water per gram dry weight)) | solubility (in words) ([2]; in TCH solutions) | solubility (no indication of solubility issues up to maximum concentration tested) ([2]; in pure water) | absorbance at 600 nm ([2]; lysozyme in TCH solutions, each sample measured) | ratio of calorimetric to Van't Hoff enthalpies [3] | solubility limit ([4]; 10° C.) | solubility limit ([4]; 20° C.) | water content corresponding to solubility limit ([4]; 20° C.) | solubility limit ([4]; 40° C.) | solubility limit, as water content ([4]; pure trehalose)
lysozyme | no sign of degradation | slightly higher unfolding temperature | increases with increasing concentrations of TCH | at least 40 mg/mL | readily soluble | ≥ 200 mg/mL | below 0.05 | ~1 | – | – | – | – | –
OC[C@H]1O[C@H](O[C@H]2O[C@H](CO)[C@@H](O)[C@H](O)[C@H]2O)[C@H](O)[C@@H](O)[C@@H]1O [trehalose] | – | – | – | – | – | – | – | – | 42.3 % (grams trehalose per gram solution) | 46.6 % (grams trehalose per gram solution) | 53.4 % (grams water per gram solution) | 59.7 % (grams trehalose per gram solution) | 53 % water by weight

From patent US20170332622A1, “COMPOSITIONS AND METHODS FOR PRESERVATION AND STORAGE OF BIOLOGICAL MATERIALS” (The University of North Carolina at Charlotte, priority 2016, published 2017)
